Test results published in patent US20230167185A1.

B1: IBIIICI scFv (scFv)
scFv: EVRLLQSGAALVRPGASVKLSCTASGFNIKDFNIHWVKQRPEQGLEWIGRIDPENGDAEYVPKFQVRATMTTDTSSNTVYLHLSSLTSGDTAVYYCTTGSYDLDVEYWGQGTTLTVSSGGGGSGGGGSGGGGSGGGGSELQMTQSPSSLSASLGDTVTITCHASQNINVWLSWYQQRPGNIPKLLIYKASTLHTGVPSRFRGSGSGTGFTLTISSLQPEDIATYYCQQGQSYPLTFGAGTKLELK
B2: 14GIIICII scFv (scFv)
scFv: QVQLQQPGAELVMPGASVNLSCKASGYTFTDYWMHWVKQRPGQGLEWIGEIDPSDNFSNLNQNFRGKATLTVDKSSRTAFLQLSSLTSEDSAVYYCAVEDYWGQGTTLTVSSGGGGSGGGGSGGGGSGGGGSDIVMTQATPSVLVTPGEAVSISCRASRSLLHSNGITYLYWFLQRPGQSPQVLIYRMSNLVSGVPDRFSGSGSGTAFTLRISRVEAEDVGVYYCMQHLEFPYTFGGGTKLEIK

Key:
[1] = target: UU71 (Clostridium tetani (tetanus toxin))
[2] = target: UU70 (Clostridium tetani (tetanus toxin))
[3] = target: UU24 (Clostridium tetani (tetanus toxin))
[4] = target: UU73 (Clostridium tetani (tetanus toxin))
[5] = target: UU72 (Clostridium tetani (tetanus toxin))
[6] = target: UU74 (Clostridium tetani (tetanus toxin))

Binder	koff [1] [s⁻¹]	kon [1] [M⁻¹ s⁻¹]	Kd [2] [nM]	koff [2] [s⁻¹]	kon [2] [M⁻¹ s⁻¹]	Kd [3] [nM]	koff [3] [s⁻¹]	kon [3] [M⁻¹ s⁻¹]	Kd [4] [nM]	koff [4] [s⁻¹]	kon [4] [M⁻¹ s⁻¹]	koff [5] [s⁻¹]	kon [5] [M⁻¹ s⁻¹]	Kd [6] [nM]	koff [6] [s⁻¹]	kon [6] [M⁻¹ s⁻¹]	Kd [1] [nM]	Kd [5] [nM]
B1	< 1e-05	230000	0.16	3.7e-05	230000	0.12	2.3e-05	190000	0.34	6.7e-05	200000	< 1e-05	250000	0.12	3.3e-05	280000		
B2	0.00032	540000	0.29	0.00019	650000	0.3	0.0002	660000	0.87	0.00044	510000	0.00034	570000	1.7	0.00095	570000	0.6	0.6
